Test results taken from publication PMC9482650, “Quantitative fragmentomics allow affinity mapping of interactomes” (Nature Communications, 2022).

B1: KCNJ9, Q92806 (peptide)
chain: LPPPESESKV
B2: CXCR1, P25024 (peptide)
chain: SSSVNVSSNL

The binders below were run against GRIP2_6, Q9C0E4 (assay: holdup assay). Settings: plain residues with an end cap or a label only (N-terminal biotin on a linker: ado-ado).
Parameters: key: below the threshold = too weak to quantify, mostly under pKd 3.1 to 4

GRIP2_6, Q9C0E4, sequence (Q9C0E4 648-740): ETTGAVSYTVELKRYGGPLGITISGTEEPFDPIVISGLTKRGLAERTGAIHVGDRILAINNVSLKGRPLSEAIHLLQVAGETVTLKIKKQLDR

| Binder | pKd |
| --- | --- |
| B1 | below the threshold |
| B2 | below the threshold |

These binders were tested against NHERF2_2, Q15599 (assay: holdup assay). Settings: plain residues with an end cap or a label only (N-terminal biotin on a linker: ado-ado).
NHERF2_2, Q15599, sequence (Q15599 142-238): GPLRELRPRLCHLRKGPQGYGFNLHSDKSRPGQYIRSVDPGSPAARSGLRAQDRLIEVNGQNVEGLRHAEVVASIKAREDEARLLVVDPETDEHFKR
Parameters: key: below the threshold = too weak to quantify, mostly under pKd 3.1 to 4

| Binder | pKd |
| --- | --- |
| B1 | below the threshold |
| B2 | 4.44 |

Each binder was assayed against GRIP2_5, Q9C0E4 (assay: holdup assay). Settings: plain residues with an end cap or a label only (N-terminal biotin on a linker: ado-ado).
GRIP2_5, Q9C0E4, sequence (Q9C0E4 544-642): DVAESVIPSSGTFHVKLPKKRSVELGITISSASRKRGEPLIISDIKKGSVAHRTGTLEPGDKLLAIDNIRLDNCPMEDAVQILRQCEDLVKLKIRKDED
Parameters: key: below the threshold = too weak to quantify, mostly under pKd 3.1 to 4

| Binder | pKd |
| --- | --- |
| B1 | below the threshold |
| B2 | below the threshold |

The binders below were run against T1, SIPA1L2, Q9P2F8 (assay: holdup assay). Settings: plain residues with an end cap or a label only (N-terminal biotin on a linker: ado-ado).
T1 sequence (Q9P2F8 945-1036, limits assumed, looked up): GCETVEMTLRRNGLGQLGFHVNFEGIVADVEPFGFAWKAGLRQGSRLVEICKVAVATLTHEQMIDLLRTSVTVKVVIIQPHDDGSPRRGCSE
Parameters: key: below the threshold = too weak to quantify, mostly under pKd 3.1 to 4

| Binder | pKd |
| --- | --- |
| B1 | below the threshold |
| B2 | below the threshold |

The binders below were run against T2, MPDZ_5, O75970 (assay: holdup assay). Settings: plain residues with an end cap or a label only (N-terminal biotin on a linker: ado-ado).
T2 sequence (O75970 695-796, limits assumed, looked up): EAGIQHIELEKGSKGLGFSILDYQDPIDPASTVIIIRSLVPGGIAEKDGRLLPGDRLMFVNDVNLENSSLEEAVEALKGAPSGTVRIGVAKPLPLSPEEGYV
Parameters: key: below the threshold = too weak to quantify, mostly under pKd 3.1 to 4

| Binder | pKd |
| --- | --- |
| B1 | below the threshold |
| B2 | below the threshold |

These binders were tested against T3, PCLO, Q9Y6V0 (assay: holdup assay). Settings: plain residues with an end cap or a label only (N-terminal biotin on a linker: ado-ado).
T3 sequence (Q9Y6V0 4491-4600, limits assumed, looked up): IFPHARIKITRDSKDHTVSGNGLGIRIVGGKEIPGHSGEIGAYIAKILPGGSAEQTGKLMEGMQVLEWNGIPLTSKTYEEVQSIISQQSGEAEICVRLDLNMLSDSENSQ
Parameters: key: below the threshold = too weak to quantify, mostly under pKd 3.1 to 4

| Binder | pKd |
| --- | --- |
| B1 | below the threshold |
| B2 | below the threshold |

What follows are binders tested against T4, DFNB31_3, Q9P202 (assay: holdup assay). Settings: plain residues with an end cap or a label only (N-terminal biotin on a linker: ado-ado).
T4 sequence (Q9P202 811-907, limits assumed, looked up): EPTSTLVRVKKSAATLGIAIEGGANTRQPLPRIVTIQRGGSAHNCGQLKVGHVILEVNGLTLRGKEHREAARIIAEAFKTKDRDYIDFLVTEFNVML
Parameters: key: below the threshold = too weak to quantify, mostly under pKd 3.1 to 4

| Binder | pKd |
| --- | --- |
| B1 | below the threshold |
| B2 | 4.18 |

What follows are binders tested against T5, PDZD2_2, O15018 (assay: holdup assay). Settings: plain residues with an end cap or a label only (N-terminal biotin on a linker: ado-ado).
T5 sequence (O15018 329-429, limits assumed, looked up): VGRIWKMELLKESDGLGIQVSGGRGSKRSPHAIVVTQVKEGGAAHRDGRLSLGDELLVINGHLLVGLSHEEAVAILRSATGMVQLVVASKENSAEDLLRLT
Parameters: key: below the threshold = too weak to quantify, mostly under pKd 3.1 to 4

| Binder | pKd |
| --- | --- |
| B1 | 4.81 |
| B2 | 3.69 |

What follows are binders tested against T6, NHERF3_4, Q5T2W1 (assay: holdup assay). Settings: plain residues with an end cap or a label only (N-terminal biotin on a linker: ado-ado).
T6 sequence (Q5T2W1 373-468, limits assumed, looked up): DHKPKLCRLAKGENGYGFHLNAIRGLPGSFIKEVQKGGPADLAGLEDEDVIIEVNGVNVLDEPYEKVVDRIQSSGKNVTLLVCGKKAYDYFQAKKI
Parameters: key: below the threshold = too weak to quantify, mostly under pKd 3.1 to 4

| Binder | pKd |
| --- | --- |
| B1 | below the threshold |
| B2 | below the threshold |

These binders were tested against IL16_3, Q14005 (assay: holdup assay). Settings: plain residues with an end cap or a label only (N-terminal biotin on a linker: ado-ado).
IL16_3, Q14005, sequence (Q14005 1107-1207): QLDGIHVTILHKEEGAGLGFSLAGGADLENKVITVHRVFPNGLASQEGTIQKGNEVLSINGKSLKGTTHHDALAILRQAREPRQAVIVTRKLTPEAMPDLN
Parameters: key: below the threshold = too weak to quantify, mostly under pKd 3.1 to 4

| Binder | pKd |
| --- | --- |
| B1 | below the threshold |
| B2 | below the threshold |

These binders were tested against T7, DLG3_1, Q92796 (assay: holdup assay). Settings: plain residues with an end cap or a label only (N-terminal biotin on a linker: ado-ado).
T7 sequence (Q92796 125-227, limits assumed, looked up): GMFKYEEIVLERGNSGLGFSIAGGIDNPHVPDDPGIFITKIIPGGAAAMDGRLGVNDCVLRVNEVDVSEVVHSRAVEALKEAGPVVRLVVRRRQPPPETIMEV
Parameters: key: below the threshold = too weak to quantify, mostly under pKd 3.1 to 4

| Binder | pKd |
| --- | --- |
| B1 | below the threshold |
| B2 | below the threshold |

These binders were tested against HTRA2, O43464 (assay: holdup assay). Settings: plain residues with an end cap or a label only (N-terminal biotin on a linker: ado-ado).
HTRA2, O43464, sequence (O43464 355-458): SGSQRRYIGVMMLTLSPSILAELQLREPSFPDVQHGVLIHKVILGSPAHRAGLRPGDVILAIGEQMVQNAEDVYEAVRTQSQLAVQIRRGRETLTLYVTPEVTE
Parameters: key: below the threshold = too weak to quantify, mostly under pKd 3.1 to 4

| Binder | pKd |
| --- | --- |
| B1 | below the threshold |
| B2 | below the threshold |

The binders below were run against T8, MPP6, Q9NZW5 (assay: holdup assay). Settings: plain residues with an end cap or a label only (N-terminal biotin on a linker: ado-ado).
T8 sequence (Q9NZW5 125-219, limits assumed, looked up): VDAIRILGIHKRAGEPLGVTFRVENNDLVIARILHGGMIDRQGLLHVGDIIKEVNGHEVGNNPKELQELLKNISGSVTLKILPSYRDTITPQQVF
Parameters: key: below the threshold = too weak to quantify, mostly under pKd 3.1 to 4

| Binder | pKd |
| --- | --- |
| B1 | below the threshold |
| B2 | below the threshold |

The binders below were run against DLG1_3, Q12959 (assay: holdup assay). Settings: plain residues with an end cap or a label only (N-terminal biotin on a linker: ado-ado).
Parameters: key: below the threshold = too weak to quantify, mostly under pKd 3.1 to 4

| Binder | pKd |
| --- | --- |
| B1 | below the threshold |
| B2 | below the threshold |

What follows are binders tested against MAST1, Q9Y2H9 (assay: holdup assay). Settings: plain residues with an end cap or a label only (N-terminal biotin on a linker: ado-ado).
MAST1, Q9Y2H9, sequence (Q9Y2H9 962-1065): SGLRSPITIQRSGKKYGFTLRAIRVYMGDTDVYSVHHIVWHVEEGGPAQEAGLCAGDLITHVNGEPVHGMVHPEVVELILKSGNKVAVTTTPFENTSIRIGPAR
Parameters: key: below the threshold = too weak to quantify, mostly under pKd 3.1 to 4

| Binder | pKd |
| --- | --- |
| B1 | 4.29 |
| B2 | 4.45 |

These binders were tested against GRASP, Q7Z6J2 (assay: holdup assay). Settings: plain residues with an end cap or a label only (N-terminal biotin on a linker: ado-ado).
GRASP, Q7Z6J2, sequence (Q7Z6J2 96-193): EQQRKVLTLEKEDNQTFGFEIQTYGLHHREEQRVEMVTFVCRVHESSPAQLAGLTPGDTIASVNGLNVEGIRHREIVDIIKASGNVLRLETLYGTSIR
Parameters: key: below the threshold = too weak to quantify, mostly under pKd 3.1 to 4

| Binder | pKd |
| --- | --- |
| B1 | below the threshold |
| B2 | 3.63 |

The binders below were run against CASK, O14936 (assay: holdup assay). Settings: plain residues with an end cap or a label only (N-terminal biotin on a linker: ado-ado).
CASK, O14936, sequence (O14936 487-570): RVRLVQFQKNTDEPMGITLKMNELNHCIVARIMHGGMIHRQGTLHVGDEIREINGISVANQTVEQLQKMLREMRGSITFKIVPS
Parameters: key: below the threshold = too weak to quantify, mostly under pKd 3.1 to 4

| Binder | pKd |
| --- | --- |
| B1 | below the threshold |
| B2 | below the threshold |

What follows are binders tested against T9, NHERF3_1, Q5T2W1 (assay: holdup assay). Settings: plain residues with an end cap or a label only (N-terminal biotin on a linker: ado-ado).
T9 sequence (Q5T2W1 4-100, limits assumed, looked up): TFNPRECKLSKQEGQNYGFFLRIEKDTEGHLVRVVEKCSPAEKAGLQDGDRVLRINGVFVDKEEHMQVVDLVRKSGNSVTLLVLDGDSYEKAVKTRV
Parameters: key: below the threshold = too weak to quantify, mostly under pKd 3.1 to 4

| Binder | pKd |
| --- | --- |
| B1 | 4.15 |
| B2 | 4.43 |

The binders below were run against FRMPD3, Q5JV73 (assay: holdup assay). Settings: plain residues with an end cap or a label only (N-terminal biotin on a linker: ado-ado).
FRMPD3, Q5JV73, sequence (Q5JV73 12-100): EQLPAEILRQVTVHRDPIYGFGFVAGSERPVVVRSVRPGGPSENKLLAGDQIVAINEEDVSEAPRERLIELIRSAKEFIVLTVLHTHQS
Parameters: key: below the threshold = too weak to quantify, mostly under pKd 3.1 to 4

| Binder | pKd |
| --- | --- |
| B1 | below the threshold |
| B2 | below the threshold |

Each binder was assayed against T10, LIN7A, O14910 (assay: holdup assay). Settings: plain residues with an end cap or a label only (N-terminal biotin on a linker: ado-ado).
T10 sequence (O14910 103-200, limits assumed, looked up): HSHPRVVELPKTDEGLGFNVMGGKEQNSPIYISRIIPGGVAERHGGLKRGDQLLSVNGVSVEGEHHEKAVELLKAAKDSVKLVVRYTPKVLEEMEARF
Parameters: key: below the threshold = too weak to quantify, mostly under pKd 3.1 to 4

| Binder | pKd |
| --- | --- |
| B1 | below the threshold |
| B2 | below the threshold |

These binders were tested against T11, SNTA1, Q13424 (assay: holdup assay). Settings: plain residues with an end cap or a label only (N-terminal biotin on a linker: ado-ado).
T11 sequence (Q13424 82-180, limits assumed, looked up): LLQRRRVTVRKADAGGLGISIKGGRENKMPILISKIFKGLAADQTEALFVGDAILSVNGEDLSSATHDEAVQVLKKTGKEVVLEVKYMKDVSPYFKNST
Parameters: key: below the threshold = too weak to quantify, mostly under pKd 3.1 to 4

| Binder | pKd |
| --- | --- |
| B1 | 3.99 |
| B2 | below the threshold |

What follows are binders tested against GOPC, Q9HD26 (assay: holdup assay). Settings: plain residues with an end cap or a label only (N-terminal biotin on a linker: ado-ado).
Parameters: key: below the threshold = too weak to quantify, mostly under pKd 3.1 to 4

| Binder | pKd |
| --- | --- |
| B1 | below the threshold |
| B2 | below the threshold |

The binders below were run against DLG1_2, Q12959 (assay: holdup assay). Settings: plain residues with an end cap or a label only (N-terminal biotin on a linker: ado-ado).
Parameters: key: below the threshold = too weak to quantify, mostly under pKd 3.1 to 4

| Binder | pKd |
| --- | --- |
| B1 | 3.54 |
| B2 | below the threshold |

These binders were tested against FRMPD2_3, Q68DX3 (assay: holdup assay). Settings: plain residues with an end cap or a label only (N-terminal biotin on a linker: ado-ado).
FRMPD2_3, Q68DX3, sequence (Q68DX3 1073-1166): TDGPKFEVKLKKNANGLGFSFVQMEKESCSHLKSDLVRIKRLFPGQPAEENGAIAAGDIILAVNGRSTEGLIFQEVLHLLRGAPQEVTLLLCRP
Parameters: key: below the threshold = too weak to quantify, mostly under pKd 3.1 to 4

| Binder | pKd |
| --- | --- |
| B1 | below the threshold |
| B2 | below the threshold |

Each binder was assayed against DLG1_1, Q12959 (assay: holdup assay). Settings: plain residues with an end cap or a label only (N-terminal biotin on a linker: ado-ado).
Parameters: key: below the threshold = too weak to quantify, mostly under pKd 3.1 to 4

| Binder | pKd |
| --- | --- |
| B1 | below the threshold |
| B2 | below the threshold |

Each binder was assayed against GRID2IP_2, A4D2P6 (assay: holdup assay). Settings: plain residues with an end cap or a label only (N-terminal biotin on a linker: ado-ado).
GRID2IP_2, A4D2P6, sequence (A4D2P6 272-370): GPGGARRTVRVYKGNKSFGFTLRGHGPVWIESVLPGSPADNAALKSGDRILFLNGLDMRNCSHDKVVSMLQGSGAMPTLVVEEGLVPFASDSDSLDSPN
Parameters: key: below the threshold = too weak to quantify, mostly under pKd 3.1 to 4

| Binder | pKd |
| --- | --- |
| B1 | below the threshold |
| B2 | 3.84 |

Each binder was assayed against MAGI2_2, Q86UL8 (assay: holdup assay). Settings: plain residues with an end cap or a label only (N-terminal biotin on a linker: ado-ado).
MAGI2_2, Q86UL8, sequence (Q86UL8 410-522): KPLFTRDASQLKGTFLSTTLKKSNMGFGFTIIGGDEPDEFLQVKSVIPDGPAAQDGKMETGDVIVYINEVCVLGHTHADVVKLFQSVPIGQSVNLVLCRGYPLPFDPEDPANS
Parameters: key: below the threshold = too weak to quantify, mostly under pKd 3.1 to 4

| Binder | pKd |
| --- | --- |
| B1 | below the threshold |
| B2 | below the threshold |
